# The DeepSol protein solubility set
# Assay: soluble on expression in E. coli; label from the status in PepcDB or PDB records
row,Sequence,soluble on expression in E. coli
1,MNVSVERYQRRKYVSQENSPMLYYVRQKSGTVRVMDVEKLADAIEANSSLTAGDVKHAIEAFVEQLRLSLTQGDKVKIDGLGTFHITLCSEGTEKEKDCTVRSIRKVNVRFVADKALHLVNASHTSTRSENNVEFVLASKGDTEGGNAGGGNTGGGGNSGGGGNSGGDEEAPDPTV,not soluble
2,MNVTEISAGQFQEMVQAGATRLHTNAEYVNSLNVFPVPDGDTGTNMNLSMTSGAKAVADSRSEKVGELAGALSKGLLMGARGNSGVILSQLFRGFSKQIPEVTTLNAKDLAAAFTHGVETAYKAVMKPVEGTILTVSREAARSGERKAKETDDCIEVMTAVVAGAKRALAKTPDLLPVLKEVGVVDSGGQGLLFIYEGFLEALSGEFLPTETYEPSPAEMDEMVNAEHHRGVSGHVATEDIKFGYCTEIMVRIGEGPTVDSAFDYETFRNYLNELGDSLLVVNDDEIIKVHVHTEHPGEVMNYGQKFGSLVKIKVDNMRLQHETLVERDAQQEALTEKVRVPFAVIAIAAGEGVQELFRSLGASYIISGGQTMNPSTEDILKAVKEVNAEQVIILPNNKNIFMAADQAAEVADVPVAVVPSKTISQGMTAMLAFNDQQSLEENKASMTEMLDSVVSGQVTTAVRDTTIDDVEIKKDDFLGMIDGKIVVSEADRFNASLDTLNRMIDEDTEIVTIIVGEDGSVEEAEKLIAILVSENDELETELHEGGQPVYPYLFSAE,not soluble
3,MNWYELYWQRITPLHLFLWPVSQLLILFQSVRRFLYRRAILTSIHLPVPIIIIDSITTDSPVKTSLIIQIANILKAAGLRPGIISRGYPDNHRPPTRVTISSHPHLTGEKSLLLTYHLRETCPVWIGYDRIETAKALLNAHKECNVLICDDGLQDLRLQRDFEAVIVDTSVINSGNGLIMPAGPLRDSFARLKHTDAVILAGHQRRIPDITDEIRTIHTRPQKEHFFNLSWPELTADAAGLAGKRIHAIVCDPDTQNFLDNLEFLKLTVTPRVFPENHHFIATDFQSDEAEIILIPEEDAVKCLSLHDDRIWVLQQEYRVDPGLREIILKKLREKFMDPKLLDILVCPLCKGSLIYKKDRLELICKADRLAYPIRDGIPVMLEDEARKLPDEEEIKLEHHHHHH,not soluble
4,MNYAGSEKRVAIEEKKKIVEFLWKRNEEQEIVGHIYIGRIVRTIAGMNAAFVNIGLEKHAYLSYDDVPSAYRIHEGQAVLVQVVKEAIDTKGPKLTANIEFTGKYVVYMPYDEMRAVSRKIKNNKRRQQLLQIEVEGTGGYIFRSASEKGEIEEIQAEMQRLQQLYEELKRKEEQGKAPLLLHRPATFLDRVFQENPIETIEKVVVDTRSIVKELEEKVGKEKVSFYNEKSSMFNHFGIEREIEKALQKIVWLPNGAYLIVEQMETMTVIDVNTGKFTGKQNLQDTVLRTNELAAEEIARQLRLRDIGGMILIDFINMKRREDKEKVRECLVAAMQNDRTYTRVLGFTELGILEMTRKRKKHSLRDVLLEECAPCKATGYVMSYETIAYELERELLTYGNIEDEAVLISAPKELQKQFLQKELQKNIPFEIYFKDDMIEKYAIIRFGSKKEIVERKNS,not soluble
5,MNYELIVVGGGPAGLAAAYEAYNNGIKNILILERDKELGGILNQCIHNGFGLHTFKEELTGPEYADRFIEMVKDTNVEVKLNTMVLEITKDKKVYAINSKEGYMELEAKAIILSMGCRERTRGAINIPGDRPAGVFTAGAAQRYINVEGYMPGKEVVILGSGDIGLIMARRMTLEGAKVKAVVELCPYSNGLNRNIVQCLNDYNIPLYLSHTVTDIIGKERLEKVIIAKVDENRRPIKGTEIEFDADTLLLSVGLIPENELSSNAGIELDRRTNGLRVTESMETSIDGIFACGNVVHVHDLVDFVTEESKRTGASAAKYIKGELKKDKYVNIVNGTNVNYTVPQKLNVDDVEDRLTIFMRVNNIYHNKVLVVRSKEEVIAKFKRAHLAPSEMEKVVLGKAFLDKIKSDITISLEDGE,not soluble
6,MNYSLEDLPNSGKNPRVYMDIVLNNEIIGRLQIKLFRDAFPAGVENFVQLTNGKTYRVNSNGTGKYKYNRHINRTYEGCKFHNVLHNNYIVSGDIYNSNGSSAGTVYCDEPIPPVFGDYFYPHESKGLLSLVPYTDESGNRYYDSTFMITLDDIRPSNVLDELDRDQVVIGQVYGGLDVLDKINSMIKPYAGRKYPTFSIGKCGAYLDSSQAQRKRPVNVNGTKRFLNKPTRVN,soluble
7,MNYVERYIEQFLRATVRNNIKHYLLMLDEKMKNLDDYMRYLITKKEQLSKLIDSLMLTLENKYIDIAEAFQIQCAREINNQEIENIKSELNKVEAYYAQIETQIQQTSTEKIATEKTSYLINYMNAVALEHHHHHH,soluble
8,MPADDLQQALNNSQNGDVITLGPGSYFGNFIISNQVTLRSNNKGEAIIDSQGKGHGLWLKNSQITIENLTITNWGHDLTDQNSGIYSHGKIDNNKVPSLTIRNNILIGDGFGIWLNQADKAIISHNRVKGNLTLRSADRGNGIQVANVTNSHVFLNEVSETRDGVYVISSQNNIIEQNTMHHLRYGIHYMYSYDNTVKNNTAYDTRAGYALMSSRRLTITGNKTTNSEDYGFLLNFITQSTFSHNYVKNVWTKPENKVLGRDGKGLFVYNSGYNTVKHNIIDTAEIGIHLTAGSENIKIFGNSFINNPTQVKYVSNKKQEWSKDGRGNYWSNYLGWDMGNDGIGDTIFEPNDGIDKLVWQYPEMKMIMDSPAILILRWVQRQFPVLKPPGVKDSFPLMSAPSLTKNEQAATPLAVTTSTFTKSNSAQSANTTSASLKELEHHHHHH,soluble
9,MPAENIVEVHHLKKSVGQGEHELSILTGVELVVKRGETIALVGESGSGKSTLLAILAGLDDGSSGEVSLVGQPLHNMDEEARAKLRAKHVGFVFQSFMLIPTLNALENVELPALLRGESSAESRNGAKALLEQLGLGKRLDHLPAQLSGGEQQRVALARAFNGRPDVLFADEPTGNLDRQTGDKIADLLFSLNREHGTTLIMVTHDLQLAARCDRCLRLVNGQLQEEA,soluble
10,MPAENSVEVHRLRKSVGQGEHELSILTGVELVVKRGETIALIGESGSGKSTLLAILAGLDDGSSGEVSLVGKPLHQMDEEARAQLRAQHVGFVFQSFMLIPTLNALENVELPALLRGENSGQSKAGAKALLEQLGLGKRLDHLPAQLSGGEQQRVALARAFNGRPDVLFADEPTGNLDRQTGDKIADLLFSLNREHGTTLILVTHDPALAARCDRRLRLVNGQLQEEA,not soluble
11,MPAVSKGDGMRGLAVFISDIRNCKSKEAEIKRINKELANIRSKFKGDKALDGYSKKKYVCKLLFIFLLGHDIDFGHMEAVNLLSSNRYTEKQIGYLFISVLVNSNSELIRLINNAIKNDLASRNPTFMGLALHCIANVGSREMAEAFAGEIPKILVAGDTMDSVKQSAALCLLRLYRTSPDLVPMGDWTSRVVHLLNDQHLGVVTAATSLITTLAQKNPEEFKTSVSLAVSRLSRIVTSASTDLQDYTYYFVPAPWLSVKLLRLLQCYPPPEDPAVRGRLTECLETILNKAQEPPKSKKVQHSNAKNAVLFEAISLIIHHDSEPNLLVRACNQLGQFLQHRETNLRYLALESMCTLASSEFSHEAVKTHIETVINALKTERDVSVRQRAVDLLYAMCDRSNAQQIVAEMLSYLETADYSIREEIVLKVAILAEKYAVDYTWYVDTILNLIRIAGDYVSEEVWYRVIQIVINRDDVQGYAAKTVFEALQAPACHENLVKVGGYILGEFGNLIAGDPRSSPLIQFNLLHSKFHLCSVPTRALLLSTYIKFVNLFPEVKATIQDVLRSDSQLKNADVELQQRAVEYLRLSTVASTDILATVLEEMPPFPERESSILAKLKKKKGGS,soluble
12,MPDGGFKVEVEALRRYRDTLEDFKSQADTFSDLVDRADVGDESWGLVGLATKSSYTEALGQLRDLLDRMKQGLTNTGEKFTKAAELYASNDDQGAIQLGNYEIEVDKVDEVRPAGA,not soluble
13,MPDGGLAAPDRAVLPRAMTPPPSTSRTYDAVIVGGGHNGLVAAAYLARAGRSVLVLERLDHTGGAAVSTKPFAGVDARLSRYSYLVSLLPKKIVRDLGLDFRVRARTVSSYTPVERAGRPTGLLVGGGERRTRESFARLTGSQREYDAWQRFYAMTGHVAQRVFPTLTEPLPTRDELRRRVDDETAWRALFEEPVGVAIEEHFDDDLVRGVALTDALIGTFADAHDPSLAQNRCFLYHVIGGGTGAWDVPVGGMGALTDALAGAARAAGAVLATGHEAVRIEADGHGAEVTFRSADGEGVAAARHVLVNASPRELAALTGDAPPAPAEGAQLKVNMLLTRLPRLRDPDADPREAFAGTFHIAEGYEQLAAAHARAAAGELPAAPPSEIYCHSLTDPTILGPGPAAKGMHTLTLFGLHTPARLFARDNDAVRAELLKSTLAQLDAHLAEPLADCLATDADGRPCIEARSPLDLERDLGLPGGNIFHRELSWPHAQEGTGHWGVETGRARVLLCGAGAVRGGGVSGVPGHNAAMAVLDGTTGLEHHHHHH,not soluble
14,MPEKKPVTAENSVGIDLGIEKFAILSDGIAVENPRFIKRVEKRIKKLQKQISRKKKGSKNYEKQKIRIQKKYRKLRNLRDDFHDKVSTAIAKRYDTIFIEDLNVRGMQRNHHLARSITDVSFYSFKEKLKWKADRYGKNLIEIGRFDPSSKLCSRCGNIKKDLKLSDRVYSCDACGLTIDRDYNASLDIRKIGLVKVGLVPPEFTPVEIATSGLDGIYPYRQMSVGESGRSEASAEELEHHHHHH,not soluble
15,MPGVTVKEIDQHVLTKNMAAFLKKSGKIFVPEQAVYMKTGKFKETAPTDDDWFYTRCASIMRHLYLRSPAGVGAFTKVYSGRKRNGVRPSKHCRSSDGCIRKALQALEAANMVERHPDGGRKLTPQGQRNLDRIANKIVAKQRERSAPVSMIITTLEHHHHHH,soluble
16,MPHPKLTPKCEAPPEKRLAHLEIRFKDRRHIIPPLFHNGWVGRNEDRTLLNDTIIEFYMCDWMRLEVFDEATRASSHVFHSFFLPKIKTCFKDFKENPPRRSELANHYNRFFRSKNDAETFLKKDILLIPVHLDKPKHWFLVIVHNPSGAVRRISDVNILDATNKVKSRRLSRRITGHVNCDENAGECRIIIMDSLVHSKKYREVIDKTHDSTFDHIRLWLLMSAAATDVDMFCTRFRKVVCQKLPQQKNSVDCGIFMMAFAEYFTKYNTAWQSLPTDALADLKMDDDIKSLLNSETPRQRLDELFQSLKA,not soluble
17,MPHSCSGNYNSCAYIYGVHICKVLLILRAQNVYRNGGFMGEQLIISISREYGSGGHEIARKLADRLELAFYDRCMLDEIAEQMNADVSDFHKYDEKPGNRLLSRRVGNHTNSYEEIIAQFQFDYIRKKAESGESFVVVGRCSENVLKDYDCLISVFVTGDKEHKIQRVMEHFDLSESEAYTKMRRHDRTRKQYHNRYSEGKWGDATYYDMCINSSPLGIEKTVNVLENYVKERTGNQEL,not soluble
18,MPIHVDKPDTMQNELIDIVADGLRSNQIYTFRMILKHDYGTHKSEATFQADPAGRIDLKYAKPLRGSYYDADPMGLFLGMKPCEDFAYGGYLRCTPPVPFYYLLELFDSSGTLIDSTYIKKHWMHPKLIRTELEEDFCATLFKPPGDGPFPVVLDISGTGGGIHEHKGAMLASEGFVVLCLAFFQFKYLPQKMEDVDMEYFAKAINYLIDLPFTKNVIGIQGVSFGATIVDLLTTRHGDKIKALVSINGPQVVSDYLFMQENGAPIPHLSHGQVTLEHCQFINGVMCSHRNFQIMTEKLTPETEIPWERIPSDVKIRVIGSVDDLCQPSVHATYYRQRRLKETGHDVEVELVNGGHIMEPPYFPHHELVYAKYQGFYCGYGGEVVLHAKSQEKTWSNTIKFFQKALGNTKKIQDWDRLTVVVPPRKKSKL,not soluble
19,MPIITKNTDTTCQTPPLLSIICPAYNQEAFVAQALDGFLSQQTRFNYEILINDDASTDGTARIIAQYAERHPTIIRAFYQQVNQYSQGLPCVPDLFAEARGRYIAYCEADDYWTDPRKLQLQVDFLESHPDYVITYHDAVAFDENGEYGVQLQGHLRADATALELQQARRLSTLTTCFRNVFSTMPPELNIRVAPLNDMCWWSLLGAHGKGKFMADIKPAAYRLHAGGVFSMRSDKRKLHMNLQTCSSLANYYNLQGNQALYEYFLMQTVCLSLAALTPSHKLQTLWQVASNVVVNLGRRLLPTTGKAHVQ,not soluble
